Laboratory results: patent US6060451A, “Thrombin inhibitors based on the amino acid sequence of hirudin” (The National Research Council of Canada, priority 1995, dated 2000)

Assays:
[1] = system: activated partial thromboplastin time; test: Increase in APTT, bolus plus infusion model; assay type: in vivo, rat; parameters: Infusion Dose needed to cause 2-4 fold increase in APTT: unit not given here; details: intravenous bolus followed by infusion
[2] = system: arteriovenous shunt occlusion; test: Antithrombotic activity in the arteriovenous shunt model; details: rats, 5 min after intravenous administration
[3] = system: carotid artery thrombosis; test: Ferric chloride injury-induced thrombosis model in carotid artery; details: rat carotid artery, FeCl3 injury; control patency time 19 ± 1 min
Experimental: Species: Rat, male, Sprague-Dawley.
Animals were laid on a heating pad which was maintained at 37° C. The carotid artery was approached through a midline cervical incision. Carefully blunt dissection was used to expose and isolate the vessel from the carotid sheath. […] The vessel temperature was monitored for 60 minutes after application of FeCl3. […] The site of the experiment was covered with aluminum foil in order to protect the FeCl3 from degradation by light.
All the samples were kept on ice and centrifuged as soon as possible at 2000 Rpm for 10 min., 4° C. The plasma was analyzed in duplicate for activated partial thromboplastin time on a haemostasis analyzer (STAGO ST4™).
From a group of four animals, two arteries were stored at -80° C. for further analysis. The others were observed under a light microscope at 40× (Leica™) for quantification of the occlusion (complete, partial, no occlusion).
In some studies, the animal was receiving the compound by i.v. infusion instead of a bolus. In this case, the jugulars and femoral veins were cannulated with Sylastic tubing (I.D. 0.025IN). This left jugular was used for blood sampling and the right one for the infusion line. The compound was infused 30 minutes before injury and then for an other 30 minutes post-injury. Blood samples were taken at time 0, 30 and 60 minutes for APTT test and thrombin test (1 ml of blood/90 ul of citrated buffer).

B1: r-Hirudin: recombinant hirudin (HV-2), thrombin inhibitor protein of the leech Hirudo medicinalis (protein)
chain: ITYTDCTESGQNLCLCEGSNVCGKGNKCILGSNGKGNQCVTGEGTPNPESHNNGDFEEIPEEYLQ
Bolus Dose needed to cause 2-4 fold increase in APTT [1]: 0.15 mg/kg
Infusion Dose needed to cause 2-4 fold increase in APTT [1]: 15
ED15 (dose which causes a prolongation of the time until occlusion of the shunt by 15 min) [2]: 1.42 mg/kg
Dose to double patency time [3]: 1 mg/kg
